From patent US20110166074A1

Key:
[1] = target: Cy3-labeled Alzheimer's amyloid-beta fibrils
[2] = target: mannose 6-phosphate receptor (MPR) on cultured rat cerebellar granule neurons (rat) (UniProt P70580); test: cell-based or functional assay
Sequence of UniProt P70580 (P70580 whole entry): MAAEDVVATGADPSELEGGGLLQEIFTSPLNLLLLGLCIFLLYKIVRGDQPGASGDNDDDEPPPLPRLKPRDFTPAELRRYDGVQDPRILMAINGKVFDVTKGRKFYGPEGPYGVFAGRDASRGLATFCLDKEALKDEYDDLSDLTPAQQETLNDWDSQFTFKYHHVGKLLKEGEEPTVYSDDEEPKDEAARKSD

B1: recombinant human CLN2 protein produced in CHO cells (proCLN2, 65 KDa precursor) (protein)
chain: SYSPEPDQRRTLPPGWVSLGRADPEEELSLTFALRQQNVERLSELVQAVSDPSSPQYGKYLTLENVADLVRPSPLTLHTVQKWLLAAGAQKCHSVITQDFLTCWLSIRQAELLLPGAEFHHYVGGPTETHVVRSPHPYQLPQALAPHVDFVGGLHRFPPTSSLRQRPEPQVTGTVGLHLGVTPSVIRKRYNLTSQDVGSGTSNNSQACAQFLEQYFHDSDLAQFMRLFGGNFAHQASVARVVGQQGRGRAGIEASLDVQYLMSAGANISTWVYSSPGRHEGQEPFLQWLMLLSNESALPHVHTVSYGDDEDSLSSAYIQRVNTELMKAAARGLTLLFASGDSGAGCWSVSGRHQFRPTFPASSPYVTTVGGTSFQEPFLITNEIVDYISGGGFSNVFPRPSYQEEAVTKFLSSSPHLPPSSYFNASGRAYPDVAALSDGYWVVSNRVPIPWVSGTSASTPVFGGILSLINEHRILSGRPPLGFLNPRLYQQHGAGLFDVTRGCHESCLDEEVEGQGFCSGPGWDPVTGWGTPNFPALLKTLLNP
B1 was tested, and the “percent of Cy3-fAβ degraded in microglia at 12.5 nM CLN2 (against mannose-6-phosphate control)” value [1] was “insignificant (2%) degradation at 12.5 nM”, the “percent of Cy3-fAβ degraded in microglia at 25 nM CLN2 (against mannose-6-phosphate control)” value [1] was 19% at 25 nM and the “percent of Cy3-fAβ degraded in microglia at 50 nM CLN2 (against mannose-6-phosphate control)” value [1] was 22% degradation at 50 nM CLN2. The “percent of Cy3-fAβ degraded in microglia at 100 nM CLN2 (against mannose-6-phosphate control)” value [1] was -30% degradation of the Cy3-fAβ when 100 nM of CLN2 was added to microglia and the EC50 of M6P inhibitable uptake into rat cerebellar granule neurons (intracellular TPP1 activity) [2] was 6 to 8 nM.
